What was measured:
[1] = target: human Mre11 core (2-411aa), N-terminal his-tagged (human) (UniProt P49959); assay: SEC
[2] = target: T1, human Mre11 core (2-411aa), N-terminal his-tagged (human, UniProt P49959 2-411); assay: SEC
T1 sequence (looked up): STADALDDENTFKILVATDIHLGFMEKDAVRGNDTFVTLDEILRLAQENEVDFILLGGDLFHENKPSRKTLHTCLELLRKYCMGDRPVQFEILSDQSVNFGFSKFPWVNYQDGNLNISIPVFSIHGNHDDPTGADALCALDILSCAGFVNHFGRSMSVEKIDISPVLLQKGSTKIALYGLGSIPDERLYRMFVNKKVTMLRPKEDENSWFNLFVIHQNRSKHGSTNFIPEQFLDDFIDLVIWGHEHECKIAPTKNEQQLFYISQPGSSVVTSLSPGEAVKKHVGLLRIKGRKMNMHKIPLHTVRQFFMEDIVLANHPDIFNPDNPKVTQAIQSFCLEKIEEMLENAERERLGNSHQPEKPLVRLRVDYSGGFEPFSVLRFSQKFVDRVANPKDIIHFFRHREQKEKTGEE

human Mre11 core (2-411aa), N-terminal his-tagged (from UniProt P49959 2-411) (domain or fragment)
stoichiometry N [1]: 2

B1: human Nbs1 F4 (622-729aa) fused to maltose binding protein (domain or fragment, UniProt O60934 622-729, looked up)
chain: KKRELKEDSLWSAKEISNNDKLQDDSEMLPKKLLLTEFRSLVIKNSTSRNPSGINDDYGQLKNFKKFKKVTYPGAGKLPHIIGGSDLIAHHARKNTELEEWLRQEMEV
binding result [2]: binds
